Test results taken from patent US20070110756A1, “Method for modulating P53 activity via methylation” (priority 2005, published 2007).

Assays:
U2OS cells = assay: Annexin V apoptotic staining after DNA damage; format: cell-based
Source text: This was directly tested by measuring the p53-dependent apoptotic response induced by DNA damage. […] The treatment of Set9-overexpressing cells with Adr further increased the Annexin V staining. […] Furthermore, Set9-mediated regulation of cell cycle and apoptosis was p53-dependent, because in the absence of p53, transfected Set9 was unable to induce p21 gene expression in H1299 (FIG. 4) or apoptosis in Saos-2 cells in response to DNA damage.

[1] = tested on: methylated Lys372-p53 in 293F cells; assay: immunoprecipitation with anti-p53-Lys372me and p53 western blot in 293F cells; format: cell-based; conditions: Adr-treated vs untreated
Procedure: The in vivo methylation of p53 at lysine 372 under conditions in which the intracellular concentration of Set9 was unaltered was also determined. 293F cells were treated with adriamycine (Adr), an agent that induces DNA damage resulting in the activation of a p53-responsive pathway. Cell extracts prepared from untreated and Adr-treated cells were then compared for total amounts of p53 protein using monoclonal p53 antibody. […] Both extracts were also subjected to immunoprecipitation with anti-p53-Lys372me antibodies followed by western blot analysis with p53-specific antibody.

[2] = tested on: methylated p53 bound to the p21 promoter in U2OS cells; assay: ChIP assay of methylated p53 at the p21 promoter; format: cell-based; conditions: 0.5 μM of Adr, time course
Procedure: U2OS and USOS Set9 siRNA cells were treated with 0.5 μM of Adr and collected at the indicated time points for a CHIP assay performed using anti-p53-Lys372me antibody. The amounts of precipitated p21 promoter were determined by quantitative RT-PCR.
It was observed that p53 methylation likely precedes acetylation. Therefore, it was expected that p53 methylation must occur at very early times after DNA damage. […] At the indicated time periods, cells were harvested, and DNA-protein complexes were cross-linked and subjected to chromatin immunoprecipitation (ChIP) analysis, initially using anti-p53-Lys372me antibodies. To increase the specificity of ChIP, the anti-p53-Lys372me immunoprecipitates were eluted from the beads with 1% SDS, diluted with immunoprecipitation buffer and then subjected to a second round of immunoprecipitation using anti-p53 antibody.
ChIP assay on U2OS and U2OS cells expressing siRNA-Set9 was performed using established methods (Barlev, et al. (2001) supra). Briefly, cells were cross-linked with 1% formaldehyde, neutralized with 0.125 M glycine and harvested by scraping. The chromatin fraction was prepared by incubating the cells in lysis buffer (10 mM Tris pH 8.0, 200 mM NaCl, 10 mM EDTA, 0.5 mM EGTA, 1 mM PMSF). The insoluble fraction was sonicated and subjected to immunoprecipitation with anti-p53-Lys372me serum. […]

[3] = tested on: p21 gene expression in U2OS cells; assay: p21 gene expression by quantitative real-time PCR; format: cell-based, human; conditions: normalized to GAPDH
Procedure: U2OS cells were stably transfected with FLAG-Set9 wild-type, FLAG-Set9 mutant or siRNA against Set9. Non-transfected cells served as control. Cells were mock-treated, or treated with 0.3 μM of 5-fluoro-uracil (5-FU) or adriamycine (Adr) as indicated. p21 (FIG. 3A), BAX (FIG. 3B) and MDM2 (FIG. 3C) gene expression was analyzed by quantitative real-time PCR using primers specific for the coding region. Shown are the relative values normalized to GAPDH signal.
Total RNA was extracted using the TRI reagent (INVITROGEN) according to the manufacturer's instructions. First-strand complementary DNA was synthesized using READY-TO-GO You-Prime First-Strand Beads (Amersham Biosciences, Piscataway, N.J.).
Real-time PCR was performed with the DNA ENGINE OPTICON 2 System (MJ Research, Waltham, Mass.) according to the manufacturer's instructions. The primers for human p21 (Cip1/WAF1′) and GAPDH (GENBANK accession numbers NM_000389 and NP_002037, respectively) were designed using the Primer3 program. […] Fluorescence was measured at the end of the elongation phase at 79° C. Expression levels were calculated as a ratio between p21 and GAPDH signals. […]

p53 in U2OS cells = assay: p53 Lys372 methylation and total p53 levels in U2OS cells; format: cell-based
[4] = molecular target: T1, Set9 construct composed of residues 52-366 (UniProt Q8WTS6 52-366); assay: cell-based or functional assay
T1 sequence (looked up): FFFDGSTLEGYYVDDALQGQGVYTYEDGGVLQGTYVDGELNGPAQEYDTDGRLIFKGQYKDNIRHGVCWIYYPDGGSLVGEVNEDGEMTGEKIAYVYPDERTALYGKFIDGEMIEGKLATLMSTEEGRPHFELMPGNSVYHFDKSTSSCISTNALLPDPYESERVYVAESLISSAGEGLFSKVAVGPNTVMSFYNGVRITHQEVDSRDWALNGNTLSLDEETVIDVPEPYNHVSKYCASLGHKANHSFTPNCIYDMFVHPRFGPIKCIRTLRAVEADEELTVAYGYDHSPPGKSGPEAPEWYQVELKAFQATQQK

COc1cccc2c1C(=O)c1c(O)c3c(c(O)c1C2=O)C[C@@](O)(C(=O)CO)C[C@@H]3O[C@H]1C[C@H](N)[C@H](O)[C@H](C)O1 [Adr, adriamycine]
number of cells positively stained for Annexin V (U2OS cells): increased the number of cells positively stained for Annexin V | intracellular concentration of methylated Lys372-p53 protein [1]: increased the intracellular concentration of methylated Lys372-p53 protein | levels of intracellular p53 ([1]; monoclonal p53 antibody): did not increase the levels of intracellular p53 | amount of methylated p53 bound to the p21 promoter [2]: increased as early as 1.5 hours after DNA damage

B1: 5′-gat ccg cac ctg gac gat gac gga tta cct tcc tgt caG TAATCCGTCATCGTCCAGGTG Ctt ttt g-3′ (nucleic acid)
chain: GATCCGCACCTGGACGATGACGGATTACCTTCCTGTCAGTAATCCGTCATCGTCCAGGTGCTTTTTG
modifications: expressed or natural sequence
notes: stem-loop siRNA targeting SET9, expressed from lentiviral pLSL-GFP vector
p21 expression upon DNA damage [3]: impaired p21 expression upon DNA damage | total levels of p53 (p53 in U2OS cells): decreased the total levels of p53 | Lys372 methylation of p53 (p53 in U2OS cells; upon Adr treatment): decreased Lys372 methylation of p53 | amount of methylated p53 bound to the p21 promoter [2]: did not exhibit a significant increase in methylated p53 at the p21 promoter

LKSKKGQSTSRHKKLMFKTY [wild-type p53 20-mer]
enzymatic activity, methyltransferase assays with 3H-labeled S-adenosyl-L-methionine (AdoMet) [4]: 6 fold
